{"source": "paper PMC9061753", "about": "“Mre11-Rad50 oligomerization promotes DNA double-strand break repair” (Nature Communications, 2022)", "binders": {"B1": {"name": "20 bp EMSA (PC216_20 nt) (dsDNA)", "DNA 1": "CGTACTCCACCTCATGCATC", "DNA 2": "GATGCATGAGGTGGAGTACG", "modifications": "biotin position marked on a T of strand 2 in table"}, "B2": {"name": "31 bp EMSA (X12-3SC) (dsDNA)", "DNA 1": "TTGCTAGGACATGCTGTCTAGAGACTATCGC", "DNA 2": "GCGATAGTCTCTAGACAGCATGTCCTAGCAA"}, "B3": {"name": "73 bp mass photometry (dsDNA)", "DNA 1": "GACCACCCTTTTTGATATAATATACCTATATCAATGGGCTCCCACGCAATTCGGCAGATACGTTCTGAGGGAA", "DNA 2": "GCCCATTGATATAGGTATATTATATCAAAAAGGGTGGTCTTCCCTCAGAACGTATCTGCCGAATTGCGTGGGA"}, "B4": {"name": "S. cerevisiae Rad50, wild type, untagged (co-expressed subunit) (natural protein, UniProt P12753 1-1312, looked up)", "chain": "MSAIYKLSIQGIRSFDSNDRETIEFGKPLTLIVGMNGSGKTTIIECLKYATTGDLPPNSKGGVFIHDPKITGEKDIRAQVKLAFTSANGLNMIVTRNIQLLMKKTTTTFKTLEGQLVAINNSGDRSTLSTRSLELDAQVPLYLGVPKAILEYVIFCHQEDSLWPLSEPSNLKKKFDEIFQAMKFTKALDNLKSIKKDMSVDIKLLKQSVEHLKLDKDRSKAMKLNIHQLQTKIDQYNEEVSEIESQLNEITEKSDKLFKSNQDFQKILSKVENLKNTKLSISDQVKRLSNSIDILDLSKPDLQNLLANFSKVLMDKNNQLRDLETDISSLKDRQSSLQSLSNSLIRRQGELEAGKETYEKNRNHLSSLKEAFQHKFQGLSNIENSDMAQVNHEMSQFKAFISQDLTDTIDQFAKDIQLKETNLSDLIKSITVDSQNLEYNKKDRSKLIHDSEELAEKLKSFKSLSTQDSLNHELENLKTYKEKLQSWESENIIPKLNQKIEEKNNEMIILENQIEKFQDRIMKTNQQADLYAKLGLIKKSINTKLDELQKITEKLQNDSRIRQVFPLTQEFQRADLEMDFQKLFINMQKNIAINNKKMHELDRRYTNALYNLNTIEKDLQDNQKSKEKVIQLLSENLPEDCTIDEYNDVLEETELSYKTALENLKMHQTTLEFNRKALEIAERDSCCYLCSRKFENESFKSKLLQELKTKTDANFEKTLKDTVQNEKEYLHSLRLLEKHIITLNSINEKIDNSQKCLEKAKEETKTSKSKLDELEVDSTKLKDEKELAESEIRPLIEKFTYLEKELKDLENSSKTISEELSIYNTSEDGIQTVDELRDQQRKMNDSLRELRKTISDLQMEKDEKVRENSRMINLIKEKELTVSEIESSLTQKQNIDDSIRSKRENINDIDSRVKELEARIISLKNKKDEAQSVLDKVKNERDIQVRNKQKTVADINRLIDRFQTIYNEVVDFEAKGFDELQTTIKELELNKAQMLELKEQLDLKSNEVNEEKRKLADSNNEEKNLKQNLELIELKSQLQHIESEISRLDVQNAEAERDKYQEESLRLRTRFEKLSSENAGKLGEMKQLQNQIDSLTHQLRTDYKDIEKNYHKEWVELQTRSFVTDDIDVYSKALDSAIMKYHGLKMQDINRIIDELWKRTYSGTDIDTIKIRSDEVSSTVKGKSYNYRVVMYKQDVELDMRGRCSAGQKVLASIIIRLALSETFGANCGVIALDEPTTNLDEENIESLAKSLHNIINMRRHQKNFQLIVITHDEKFLGHMNAAAFTDHFFKVKRDDRQKSQIEWVDINRVTY", "notes": "Rad50, S. cerevisiae, untagged; also called Rad50^wt; untagged Rad50; source: Sf9, co-expressed with Mre11-6xHis (and FLAG-Xrs2)"}, "B5": {"name": "S. cerevisiae Rad50^N121A/D124N, expressed and purified alone (natural protein, UniProt P12753 1-1312, looked up)", "chain": "B4 chain with N121A, D124N", "notes": "Rad50, S. cerevisiae; also called Rad50^ho"}, "B6": {"name": "S. cerevisiae Rad50, wild type, expressed and purified alone (natural protein, UniProt P12753 1-1312, looked up)", "chain": "B4 chain", "notes": "Rad50, S. cerevisiae; also called Rad50^wt"}, "B7": {"name": "106 bp mass photometry (dsDNA)", "DNA 1": "TTAGCTCCTACGCGGAACGAGACCTACCAATATACCTATATCAATGGCCTCCCACGCATAAGCCTCGGGAGCTCGACCATCTGGTCTCATCGGACACTTAGGACCA", "DNA 2": "TGGTCCTAAGTGTCCGATGAGACCAGATGGTCGAGCTCCCGAGGCTTATGCGTGGGAGGCCATTGATATAGGTATATTGGTAGGTCTCGTTCCGCGTAGGAGCTAA"}, "B8": {"name": "70 bp EMSA (PC210/PC211) (dsDNA)", "DNA 1": "GTAAGTGCCGCGGTGCGGGTGCCAGGGCGTGCCCTTGGGCTCCCCGGGCGCGTACTCCACCTCATGCATC", "DNA 2": "GATGCATGAGGTGGAGTACGCGCCCGGGGAGCCCAAGGGCACGCCCTGGCACCCGCACCGCGGCACTTAC", "modifications": "biotin positions marked in table"}, "B9": {"name": "197 bp mass photometry (dsDNA)", "DNA 1": "GCTTCGTATGTTTCTCCTGCTTATCACCTTCTTGAAGGCTTCCCATTCATTCAGGAACCGCCTTCTGGTGATTTGCAAGAACGCGTACTTATTCGCCACCATGATTATGACCAGTGTTTCCAGTCCGTTCAGTTGTTGCAGTGGAATAGTCAGGTTAAATTTAATGTGACCGTTTATCGCAATCTGCCGACCACTCG", "DNA 2": "GCGAGTGGTCGGCAGATTGCGATAAACGGTCACATTAAATTTAACCTGACTATTCCACTGCAACAACTGAACGGACTGGAAACACTGGTCATAATCATGGTGGCGAATAAGTACGCGTTCTTGCAAATCACCAGAAGGCGGTTCCTGAATGAATGGGAAGCCTTCAAGAAGGTGATAAGCAGGAGAAACATACGAAG"}}, "key": {"[1]": {"target": "T1, Mre11-Rad50 (MRwt) (S. cerevisiae, UniProt P32829;P12753 1-692;1-1312)", "T1 sequence (P32829 whole entry, one chain of several)": "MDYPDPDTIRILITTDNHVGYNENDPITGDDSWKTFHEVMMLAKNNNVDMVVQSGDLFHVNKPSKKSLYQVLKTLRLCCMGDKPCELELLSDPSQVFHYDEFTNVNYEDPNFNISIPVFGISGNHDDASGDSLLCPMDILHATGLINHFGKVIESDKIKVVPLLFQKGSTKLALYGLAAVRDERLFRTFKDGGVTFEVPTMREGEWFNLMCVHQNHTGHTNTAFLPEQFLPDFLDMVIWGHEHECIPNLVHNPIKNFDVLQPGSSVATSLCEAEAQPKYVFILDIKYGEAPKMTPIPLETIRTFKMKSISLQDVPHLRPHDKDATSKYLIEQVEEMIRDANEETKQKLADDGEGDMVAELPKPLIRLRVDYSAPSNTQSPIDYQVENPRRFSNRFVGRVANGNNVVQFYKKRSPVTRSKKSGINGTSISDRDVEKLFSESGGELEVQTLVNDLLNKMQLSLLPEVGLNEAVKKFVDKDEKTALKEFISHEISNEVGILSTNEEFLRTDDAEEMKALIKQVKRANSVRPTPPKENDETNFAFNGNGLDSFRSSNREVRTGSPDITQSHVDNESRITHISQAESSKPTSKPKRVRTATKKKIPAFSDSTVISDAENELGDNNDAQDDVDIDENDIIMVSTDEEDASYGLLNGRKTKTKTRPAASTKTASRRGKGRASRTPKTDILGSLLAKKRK", "experiment": "EMSA; ATPgS, 5 mM Mg2+, 30 mM NaCl; mean of the 3 visible of 4 replicates (20.5, 22.96, 22.55); apparent; Oligo EMSA: 25 mM Tris acetate pH 7.5, 1 mM DTT, 0.25 mg/ml BSA, 5 mM Mg acetate, 1 mM ATPgS, 30 mM NaCl, 30 C 15 min, 100 nM bp DNA; plasmid EMSA: 80 mM KCl, plus 1 mM MnCl2, 30 C 1 h; mass photometry 25 mM KCl", "conditions": "protein: recombinant; tags: Mre11-6xHis; Rad50 untagged; chain copies: 2;2; label: 3'-32P on strand 1 (terminal transferase); blunt before 3' labeling"}, "[2]": {"target": "T1, Mre11-Rad50 (MRwt)", "experiment": "EMSA; ATPgS, 5 mM Mg2+, 30 mM NaCl; mean of the 3 visible of 4 replicates (14.03, 13.92, 12.72); apparent; Oligo EMSA: 25 mM Tris acetate pH 7.5, 1 mM DTT, 0.25 mg/ml BSA, 5 mM Mg acetate, 1 mM ATPgS, 30 mM NaCl, 30 C 15 min, 100 nM bp DNA; plasmid EMSA: 80 mM KCl, plus 1 mM MnCl2, 30 C 1 h; mass photometry 25 mM KCl", "conditions": "protein: recombinant; tags: Mre11-6xHis; Rad50 untagged; chain copies: 2;2; label: 3'-32P on strand 1 (terminal transferase); blunt before 3' labeling"}, "[3]": {"target": "T1, Mre11-Rad50 (MRwt)", "experiment": "mass photometry; 25 mM KCl; Oligo EMSA: 25 mM Tris acetate pH 7.5, 1 mM DTT, 0.25 mg/ml BSA, 5 mM Mg acetate, 1 mM ATPgS, 30 mM NaCl, 30 C 15 min, 100 nM bp DNA; plasmid EMSA: 80 mM KCl, plus 1 mM MnCl2, 30 C 1 h; mass photometry 25 mM KCl", "conditions": "protein: recombinant; tags: Mre11-6xHis; Rad50 untagged; chain copies: 2;2; bottom as printed is a circular permutation of the complement of top (possible printing error); stated 73 bp"}, "[4]": {"target": "T2, MRho (S. cerevisiae, UniProt P32829;P12753 1-692;1-1312, N121A;D124N;Rad50:)", "T2 sequence (P32829 whole entry, stated change not applied, one chain of several)": "as the sequence (P32829 whole entry, one chain of several) above", "experiment": "mass photometry; 25 mM KCl; two dimers per DNA detected; Oligo EMSA: 25 mM Tris acetate pH 7.5, 1 mM DTT, 0.25 mg/ml BSA, 5 mM Mg acetate, 1 mM ATPgS, 30 mM NaCl, 30 C 15 min, 100 nM bp DNA; plasmid EMSA: 80 mM KCl, plus 1 mM MnCl2, 30 C 1 h; mass photometry 25 mM KCl", "conditions": "protein: recombinant; tags: Mre11-6xHis; Rad50 untagged; chain copies: 2;2; bottom as printed is a circular permutation of the complement of top (possible printing error); stated 73 bp"}, "[5]": {"target": "the molecule itself", "experiment": "negative staining TEM; purified complexes without DNA; 25 mM Tris acetate pH 7.5, 1 mM DTT, 120 mM KCl; 4 °C, or 30 °C for 30 min with 5 mM Mg2+, 1 mM Mn2+, 1 mM ATPγS; oligomers stable at 150 mM KCl or NaCl; step: M2R2 to (M2R2)n"}, "[6]": {"target": "the molecule itself", "experiment": "negative staining TEM; proteins on linear or circular plasmid DNA, 30 °C 30 min, Mg2+, Mn2+, ATPγS (or ATP), 30-50 mM KCl; 50-100 nM MR; oligomerization on DNA"}, "[7]": {"target": "Mre11-Rad50-Xrs2 (MRX) (S. cerevisiae, UniProt P32829;P12753;P33301 1-692;1-1312;1-854)", "sequence (P32829 whole entry, chain 1 of 2)": "as the sequence (P32829 whole entry, one chain of several) above", "sequence (P33301 whole entry, chain 3 of 2)": "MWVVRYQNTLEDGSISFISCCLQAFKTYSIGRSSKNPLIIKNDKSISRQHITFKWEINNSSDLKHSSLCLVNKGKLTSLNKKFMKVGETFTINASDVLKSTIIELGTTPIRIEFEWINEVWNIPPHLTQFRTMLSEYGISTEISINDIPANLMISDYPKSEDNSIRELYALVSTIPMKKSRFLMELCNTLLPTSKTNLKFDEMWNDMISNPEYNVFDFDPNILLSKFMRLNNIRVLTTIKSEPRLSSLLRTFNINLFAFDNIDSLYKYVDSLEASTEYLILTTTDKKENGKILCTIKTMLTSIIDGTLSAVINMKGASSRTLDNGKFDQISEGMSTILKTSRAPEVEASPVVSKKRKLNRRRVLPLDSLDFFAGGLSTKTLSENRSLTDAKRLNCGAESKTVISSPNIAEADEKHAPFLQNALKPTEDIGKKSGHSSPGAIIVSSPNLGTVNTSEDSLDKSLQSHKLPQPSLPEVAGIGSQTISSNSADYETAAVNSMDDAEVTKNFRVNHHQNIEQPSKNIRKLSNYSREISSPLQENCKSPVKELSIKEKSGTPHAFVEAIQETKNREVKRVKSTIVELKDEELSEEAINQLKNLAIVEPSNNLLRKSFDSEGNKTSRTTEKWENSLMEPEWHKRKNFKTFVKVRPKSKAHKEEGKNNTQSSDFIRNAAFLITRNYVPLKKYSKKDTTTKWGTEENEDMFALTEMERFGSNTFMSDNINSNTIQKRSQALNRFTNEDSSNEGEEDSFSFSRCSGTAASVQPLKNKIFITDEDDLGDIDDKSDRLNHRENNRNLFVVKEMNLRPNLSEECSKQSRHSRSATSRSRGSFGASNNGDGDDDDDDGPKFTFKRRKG", "experiment": "mass photometry; 25 mM KCl; Oligo EMSA: 25 mM Tris acetate pH 7.5, 1 mM DTT, 0.25 mg/ml BSA, 5 mM Mg acetate, 1 mM ATPgS, 30 mM NaCl, 30 C 15 min, 100 nM bp DNA; plasmid EMSA: 80 mM KCl, plus 1 mM MnCl2, 30 C 1 h; mass photometry 25 mM KCl", "conditions": "protein: recombinant; tags: His-Mre11; Rad50 untagged; Xrs2-FLAG; chain copies: 2;2;1; blunt"}, "[8]": {"target": "T2, MRho", "experiment": "mass photometry; 25 mM KCl; Oligo EMSA: 25 mM Tris acetate pH 7.5, 1 mM DTT, 0.25 mg/ml BSA, 5 mM Mg acetate, 1 mM ATPgS, 30 mM NaCl, 30 C 15 min, 100 nM bp DNA; plasmid EMSA: 80 mM KCl, plus 1 mM MnCl2, 30 C 1 h; mass photometry 25 mM KCl", "conditions": "protein: recombinant, tags: Mre11-6xHis, Rad50 untagged, chain copies: 2;2"}, "[9]": {"target": "T1, Mre11-Rad50 (MRwt)", "experiment": "mass photometry; 25 mM KCl; two dimers per DNA detected; Oligo EMSA: 25 mM Tris acetate pH 7.5, 1 mM DTT, 0.25 mg/ml BSA, 5 mM Mg acetate, 1 mM ATPgS, 30 mM NaCl, 30 C 15 min, 100 nM bp DNA; plasmid EMSA: 80 mM KCl, plus 1 mM MnCl2, 30 C 1 h; mass photometry 25 mM KCl", "conditions": "protein: recombinant; tags: Mre11-6xHis; Rad50 untagged; chain copies: 2;2; blunt"}, "[10]": {"target": "T1, Mre11-Rad50 (MRwt)", "experiment": "EMSA; ATPgS, 5 mM Mg2+, 30 mM NaCl; mean of the 2 visible of 3 replicates (7.787, 6.135); apparent; Oligo EMSA: 25 mM Tris acetate pH 7.5, 1 mM DTT, 0.25 mg/ml BSA, 5 mM Mg acetate, 1 mM ATPgS, 30 mM NaCl, 30 C 15 min, 100 nM bp DNA; plasmid EMSA: 80 mM KCl, plus 1 mM MnCl2, 30 C 1 h; mass photometry 25 mM KCl", "conditions": "protein: recombinant; tags: Mre11-6xHis; Rad50 untagged; chain copies: 2;2; label: 3'-32P; blunt before 3' labeling"}, "[11]": {"target": "MRlo (S. cerevisiae, UniProt P32829;P12753 1-692;1-1312, L116A;I119A;T127A;L128A;Rad50:)", "sequence (P32829 whole entry, stated change not applied, one chain of several)": "as the sequence (P32829 whole entry, one chain of several) above", "experiment": "mass photometry; 25 mM KCl, 5 nM protein, 2.5 nM DNA; Oligo EMSA: 25 mM Tris acetate pH 7.5, 1 mM DTT, 0.25 mg/ml BSA, 5 mM Mg acetate, 1 mM ATPgS, 30 mM NaCl, 30 C 15 min, 100 nM bp DNA; plasmid EMSA: 80 mM KCl, plus 1 mM MnCl2, 30 C 1 h; mass photometry 25 mM KCl", "conditions": "protein: recombinant; tags: Mre11-6xHis; Rad50 untagged; chain copies: 2;2; 1-nt 5' overhangs as printed"}}, "note": "Residue numbers refer to the chain shown, from its start. Names and notes keep the numbering of the source."}
{"binder": "B1", "values": [{"measurement": "Kd", "setting": "[1]", "result": "~22", "unit": "nM"}]}
{"binder": "B2", "values": [{"measurement": "Kd", "setting": "[2]", "result": "~13.6", "unit": "nM"}]}
{"binder": "B3", "values": [{"measurement": "binding result", "setting": "[3]", "result": "binds"}, {"measurement": "binding result", "setting": "[4]", "result": "binds"}]}
{"binder": "B4", "values": [{"measurement": "binding result", "setting": "[5]", "result": "binds"}]}
{"binder": "B5", "values": [{"measurement": "binding result", "setting": "[6]", "result": "binds"}]}
{"binder": "B6", "values": [{"measurement": "binding result", "setting": "[6]", "result": "binds"}]}
{"binder": "B7", "values": [{"measurement": "binding result", "setting": "[7]", "result": "binds"}, {"measurement": "binding result", "setting": "[8]; blunt", "result": "binds"}, {"measurement": "binding result", "setting": "[9]", "result": "binds"}]}
{"binder": "B8", "values": [{"measurement": "Kd", "setting": "[10]", "result": "~6.96", "unit": "nM"}]}
{"binder": "B9", "values": [{"measurement": "binding result", "setting": "[11]", "result": "no binding"}, {"measurement": "binding result", "setting": "[8]; 1-nt 5' overhangs as printed", "result": "binds"}]}
